Measurements reported in the supplement of paper PMC10567573.

B1: MLH1 (parent)
chain: YNIATRRKALKNPSEEYGKILEVV

Variants of: B1
Test: protein stability index of a GFP-peptide fusion (GPS, HEK-293T) (PSI 1-6); higher = more stable
Conditions: c terminus: a fixed tail appended
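Further: lentivirally expressed fusions sorted by FACS into six bins by GFP to DsRed ratio, PSI derived from sequencing read proportions per bin multiplied by bin number.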

Row | Variant | protein stability index
1 | YNIATKRKALKNPSEEYGKILEVV [R6K] | 2.99
2 | YNIATYRKALKNPSEEYGKILEVV [R6Y] | 1.76
3 | YNIATQRKALKNPSEEYGKILEVV [R6Q] | 2.82
4 | YNIATPRKALKNPSEEYGKILEVV [R6P] | 3.15
5 | YNIATRRRALKNPSEEYGKILEVV [K8R] | 2.85
6 | YNIATRRHALKNPSEEYGKILEVV [K8H] | 2.48
7 | YNIATRRIALKNPSEEYGKILEVV [K8I] | 2
8 | YNIATRRGALKNPSEEYGKILEVV [K8G] | 3.37
9 | YNIATRRCALKNPSEEYGKILEVV [K8C] | 1.87
10 | YNIATRRLALKNPSEEYGKILEVV [K8L] | 1.99
11 | YNIATRRFALKNPSEEYGKILEVV [K8F] | 2.27
12 | YNIATRRVALKNPSEEYGKILEVV [K8V] | 2.2
13 | YNIATRRWALKNPSEEYGKILEVV [K8W] | 1.94
14 | YNIATRRDALKNPSEEYGKILEVV [K8D] | 3.09
15 | YNIATRREALKNPSEEYGKILEVV [K8E] | 3.25
16 | YNIATRRKALKNPSEEYGNILEVV [K19N] | 3.29
17 | YNIATRRKALKNPSEEYGLILEVV [K19L] | 1.63
18 | YNIATRRKALKNPSEEYGAILEVV [K19A] | 2.5
19 | YNIATRRKALKNPSEEYGMILEVV [K19M] | 2.51
20 | YNIATRRKALKNPSEEYGHILEVV [K19H] | 2.42
21 | YNIATRRKALKNPSEEYGCILEVV [K19C] | 1.8
22 | YNIATRRKALKNPSEEYGWILEVV [K19W] | 1.65
23 | YNIATRRKALKNPSEEYGIILEVV [K19I] | 1.8
24 | YNIATRRKALKNPSEEYGVILEVV [K19V] | 1.74

Row | Variant | protein stability index
25 | YNIATRRKALKNPSEEYGEILEVV [K19E] | 3.37
26 | YNIATRRKALKNPSEEDGKILEVV [Y17D] | 4.3
27 | YNIATRRKALKNPSEETGKILEVV [Y17T] | 3.72
28 | YNIATRRKALKNPSEEHGKILEVV [Y17H] | 3.53
29 | YNIATRRKALKNPSEECGKILEVV [Y17C] | 3.05
30 | YNIATRRKALKNPSEELGKILEVV [Y17L] | 2.63
31 | YNIATRRKALKNPSEEVGKILEVV [Y17V] | 3.16
32 | YNIATRRKALKNPSEEPGKILEVV [Y17P] | 4.17
33 | YNIATRRKALKNPSEEQGKILEVV [Y17Q] | 3.97
34 | YNIATRRKALKNPSEEIGKILEVV [Y17I] | 2.95
35 | YNIATRRKALKNPSEESGKILEVV [Y17S] | 3.75
36 | YNIATRRKALKNPSEEWGKILEVV [Y17W] | 2.66
37 | YNIATRRKALKNPSEENGKILEVV [Y17N] | 4.08
38 | YNIATRRKALKNPSEEAGKILEVV [Y17A] | 3.52
39 | YNIATRRKALKNPSEERGKILEVV [Y17R] | 3.57
40 | YNIATRRKALKNPSEEKGKILEVV [Y17K] | 3.37
41 | YNIATRRKALKNPSEEMGKILEVV [Y17M] | 3.11
42 | YNIATRRKALKNPSEEEGKILEVV [Y17E] | 4.04
43 | YNIATRRKALKNPLEEYGKILEVV [S14L] | 1.78
44 | YNIATRRKALKNPTEEYGKILEVV [S14T] | 2.85
45 | YNIATRRKALKNPAEEYGKILEVV [S14A] | 2.98
46 | YNIATRRKALKNPFEEYGKILEVV [S14F] | 2.01
47 | YNIATRRKALKNPWEEYGKILEVV [S14W] | 1.43
48 | YNIATRRKALKNPDEEYGKILEVV [S14D] | 2.98

Row | Variant | protein stability index
49 | YNIATRRKALKNPQEEYGKILEVV [S14Q] | 2.79
50 | YNIATRRKALKNPEEEYGKILEVV [S14E] | 3.56
51 | YNIATRRKALKNPNEEYGKILEVV [S14N] | 2.71
52 | YNIATRRKALKNPREEYGKILEVV [S14R] | 2.94
53 | YNIATRRKALKVPSEEYGKILEVV [N12V] | 1.98
54 | YNIATRRKALKGPSEEYGKILEVV [N12G] | 2.71
55 | YNIATRRKALKDPSEEYGKILEVV [N12D] | 3.32
56 | YNIATRRKALKHPSEEYGKILEVV [N12H] | 2.74
57 | YNIATRRKALKFPSEEYGKILEVV [N12F] | 1.97
58 | YNIATRRKALKYPSEEYGKILEVV [N12Y] | 2.53
59 | YNIATRRKALKSPSEEYGKILEVV [N12S] | 2.76
60 | YNIATRRKALKRPSEEYGKILEVV [N12R] | 3.3
61 | YNIATRRKALKPPSEEYGKILEVV [N12P] | 3.11
62 | YNIATRRKALKEPSEEYGKILEVV [N12E] | 3.35
63 | YNIATRRKALKWPSEEYGKILEVV [N12W] | 1.94
64 | YNIATRRKALKAPSEEYGKILEVV [N12A] | 2.55
65 | YNIATRRKALKNISEEYGKILEVV [P13I] | 2.15
66 | YNIATRRKALKNSSEEYGKILEVV [P13S] | 3.05
67 | YNIATRRKALKNNSEEYGKILEVV [P13N] | 2.99
68 | YNIATRRKALKNMSEEYGKILEVV [P13M] | 2.27
69 | YNIATRRKALKNCSEEYGKILEVV [P13C] | 3.26
70 | YNIATRRKALKNYSEEYGKILEVV [P13Y] | 2.59
71 | YNIATRRKALKNKSEEYGKILEVV [P13K] | 3.19
72 | YNIATRRKALKNRSEEYGKILEVV [P13R] | 2.78

Row | Variant | protein stability index
73 | YNIATRRKALKNFSEEYGKILEVV [P13F] | 1.96
74 | YNIATRRKALKNTSEEYGKILEVV [P13T] | 2.89
75 | YNIATRRKALKNWSEEYGKILEVV [P13W] | 2.66
76 | YNIATRRKALKNHSEEYGKILEVV [P13H] | 2.94
77 | YNIATRRKALKNPSYEYGKILEVV [E15Y] | 2
78 | YNIATRRKALKNPSMEYGKILEVV [E15M] | 2.54
79 | YNIATRRKALKNPSHEYGKILEVV [E15H] | 2.43
80 | YNIATRRKALKNPSPEYGKILEVV [E15P] | 2.21
81 | YNIATRRKALKNPSDEYGKILEVV [E15D] | 2.7
82 | YNIATRRKALKNPSAEYGKILEVV [E15A] | 2.1
83 | YNIATRRKALKNPSGEYGKILEVV [E15G] | 1.76
84 | YNIATRRKALKNPSKEYGKILEVV [E15K] | 2.06
85 | YNIATRRKALKNPSFEYGKILEVV [E15F] | 2.29
86 | YNIATRRKALKNPSVEYGKILEVV [E15V] | 1.85
87 | YNIATRRKALKNPSQEYGKILEVV [E15Q] | 2.15
88 | YNIATRRKALKNPSSEYGKILEVV [E15S] | 2.49
89 | YNIATRRKALKNPSREYGKILEVV [E15R] | 2.46
90 | YNIATRRKALKNPSLEYGKILEVV [E15L] | 1.99
91 | YNIATRRKALKNPSCEYGKILEVV [E15C] | 2.17
92 | YNIATRRKALKNPSWEYGKILEVV [E15W] | 1.78
93 | YNIATRRKALKNPSNEYGKILEVV [E15N] | 2.43
94 | YNIATRRKALKNPSIEYGKILEVV [E15I] | 2.46
